Experimental findings from article doi:10.1101/2025.04.23.650119 are described below.

The target in the experiment is α-conotoxin ImII (Conus imperialis). The experiment in a line: cryo-EM structure.

α-conotoxin ImII (peptide): the stoichiometry N – broadly, a count of units in the complex or per binding partner – turned out to be 2.
